Entries after “also recorded” stand apart in the source; their conditions may differ.
What was measured:
[1] = Self-assembly of peptides into hydrogel at physiologic pH and osmolarity; assay type: physicochemical; settings: for self-assembly into a hydrogel when mixed with peptide hydrogel R: mixed with R at a 1:10 ratio; for self-assemble at physiologic pH and osmolarity: peptide alone; for Self-Assembly: peptide alone at 1 % w/v
Description: JAG-1 (CDDYYYGFGCNKFCRPR)(SEQ ID NO: 1) can be incorporated into the self-assembling peptides to generate bioactive scaffolds with the potential to regulate Notch signaling in a ligand density dependent manner. The self-assembling sequence RADA (or R) (RARADADARARADADA)(SEQ ID NO: 2) with a 7 glycine linker following the terminal alanine is followed by the active sequence of the Notch ligand Jagged-1 (JAG-1) to create the fusion peptide (RJ). As a control, the JAG-1 portion may be replaced with the scrambled sequence (RCGPDCFDNYGRYKYCF)(SEQ ID NO:4) (RS) with no known cell surface binding site can be used as a control to check for the specificity of JAG 1 in activating Notch-1 signaling. […] These peptide scaffolds self-assemble at physiological pH and osmolarity (in 295 mM sucrose solution) into nanofiber hydrogels. After synthesis, the peptides can be purified by high pressure liquid chromatography on reverse-phase columns. Purity can be assessed by HPLC and the presence of a correct composition by amino acid analysis.
The self-assembling peptide (R) and the peptides with Jag-1 (RJ) or scrambled (RS) attached are weighed out to create hydrogels of 1-3% w/v, i.e., hydrogels with varying % concentration from 1 to 3% w/v peptide wherein R is combined with RJ or RS in a ratio of 1:10.
A sucrose solution (295 mM) is added to the peptides and sonicated. The RJ or RS peptide solutions are mixed with the R solution at 1:10 and allowed to form the hydrogel. The time required to form the hydrogel depends on the concentration of the gel. In certain embodiments, the disclosure relates to the synthesis of self assembling peptides which contain the active ligand JAG-1 attached to it. This enables easy dose manipulation of JAG-1 to achieve Notch-1 activation.

[2] = Atomic force microscopy measurement of Young's modulus of hydrogels; assay type: physicochemical; settings: in comparison with unmodified hydrogels at both 1 and 2% w/v
Experimental: (§1) Peptides have been created containing a ligand for Notch-1 activation that self assembles into a hydrogel. For determination of swelling ratio, the hydrogels were created in a […] total volume and allowed to swell in 295 mM sucrose solution. After 24 h, the wet weight of the gels was measured. The gels were then lyophilized and the dry weight noted. Swelling ratio was calculated as the (wet weight−dry weight)/wet weight. […] The average Young's modulus for 1% and 2% hydrogels was 500 Pa and 1800 Pa respectively (FIG. 1A).
Cardiac progenitor cells (CPCs) were isolated from 2 month old male Sprague Dawley rats by digesting the heart with Collagenase followed by magnetic sorting for cKit positive cells. The CPCs were cultured on Ham's F12 supplemented with FBS, LIF, bFGF, L-Glutamine and antibiotics. Single cell cloning was performed by limiting dilution to obtain CPCs with >90% expression of cKit and the cardiac transcription factors nkx2-5 and gata-4. […] The Young's modulus of the hydrogels was determined using an MFP-3DBIO atomic force microscope (Asylum Research; Santa Barbara, Calif.), with a 4.74 μm diameter bead tippedsilicon nitride cantilever.

[3] = Swelling ratio of hydrogels; assay type: physicochemical; settings: n=3
Experimental: as §1

Notch1 [4] = assay: Notch1 activation in CHO cells with Notch1-responsive YFP expression, 2D culture with peptide in media; assay type: cell-based; settings: media containing peptide at 40 μm, 48 h
Experimental: (§2) CHO cells with Notch1-responsive YFP expression were cultured in media containing 20 or 40 μm R, RS or RJ for 48 h. […] These cells were also cultured in 3D in 1-3% w/v hydrogels composed of R, RS or RJ for 48 h.

Notch1 [5] = assay: Notch1 activation in CHO cells with Notch1-responsive YFP expression, 3D culture in hydrogels; assay type: cell-based; settings: 48 h
Experimental: as §2

[6] = test system: Cardiac progenitor cells (CPCs); assay: qPCR gene expression of CPCs cultured in hydrogels; assay type: cell-based, rat; settings: 48 h
Experimental: Cardiac progenitor cells (CPCs) were isolated from 2 month old male Sprague Dawley rats by digesting the heart with Collagenase followed by magnetic sorting for cKit positive cells. The CPCs were cultured on Ham's F12 supplemented with FBS, LIF, bFGF, L-Glutamine and antibiotics. Single cell cloning was performed by limiting dilution to obtain CPCs with >90% expression of cKit and the cardiac transcription factors nkx2-5 and gata-4. CPCs were cultured in self assembling hydrogels of various concentrations (1-3% w/v) with either empty, scrambled or JAG-1 peptide in 1:10 ratio for 48 hrs in Millicell Insets. qRT-PCRs were performed using Power SYBR green on the StepOne Plus Applied Biosystems machine. The Young's modulus of the hydrogels was determined using an MFP-3DBIO atomic force microscope (Asylum Research; Santa Barbara, Calif.), with a 4.74 μm diameter bead tippedsilicon nitride cantilever.
CPCs were clonally expanded and characterized to be >96% Notch1+, >90% c-Kit+, nkx2-5+(nk2 homeobox 5) and gata4+(GATA binding protein 4). CPCs were cultured in 1 or 2% (w/v) SAP hydrogels (1R, 1RS, 1RJ or 2R, 2RS, 2RJ) for 48 h.

[7] = test system: embryoid bodies (EBs) from mouse embryonic stem cells; assay: qPCR gene expression of mouse embryoid bodies cultured in 1% hydrogels; assay type: cell-based; settings: mouse EBs in 1% hydrogels
Experimental: To determine if gene expression changes in response to hydrogel-mediated Notch1 activation were conserved between stem/progenitor cells, day 2 embryoid bodies (EBs) from mouse embryonic stem cells were cultured in low concentration (1%) hydrogels for 48 h.

Row | Substance | self-assembly into a hydrogel when mixed with peptide hydrogel R [1] | self-assemble at physiologic pH and osmolarity [1] | Self-Assembly [1] | effect of addition of peptide to the SAP on Young's modulus [2] | effect of peptide addition on network structure (swelling ratio) [3] | other results
1 | CDDYYYGFGCNKFCRPR [JAG-1] | self-assembles into a hydrogel | do not self-assemble | – | – | – | –
2 | H2N-RARADADARARADADA-OH (H-RARADADARARADADA-OH) [unmodified/empty control] | – | – | yes | – | – | –
3 | RARADADARARADADA(G7)(JAG-1) (RARADADARARADADAGGGGGGGCDDYYYGFGCNKFCRPR) [RJ] | – | – | no | did not alter the Young's modulus | no significant effect | Notch1 activation (YFP expression) (Notch1 [4]): significant increase; Notch1 activation (YFP expression) (Notch1 [5]; 2% w/v hydrogel): maximum Notch1 activation; also recorded: highest levels of Notch1 activation; Notch1 activation (YFP expression) (Notch1 [5]; further increase to 3% w/v hydrogel): did not promote Notch1 activation; Notch1 signaling in CPCs ([6]; 1% hydrogels): activates Notch1 signaling; Notch1 signaling in CPCs ([6]; 2% hydrogels): activates Notch1 signaling; endothelial and smooth muscle gene expression ([6]; CPCs in 1% hydrogels): promotes; expression of Hey1 (Notch1 downstream target) ([6]; CPCs in 1 or 2% hydrogels, qPCR): increased expression; cardiac gene expression ([6]; CPCs in 2% hydrogels): promotes; endothelial and smooth muscle gene expression [7]: promotes
4 | RARADADARARADADA(G7)(SCR-1) (RARADADARARADADAGGGGGGGRCGPDCFDNYGRYKYCF) [RS, reference compound] | – | – | no | did not alter the Young's modulus | no significant effect | –
5 | RCGPDCFDNYGRYKYCF [SCR-1] | self-assembles into a hydrogel | do not self-assemble | – | – | – | –
